Results published in patent US7173007B1, “Therapy for microbial infections” (The Regents of the University of California, priority 2003, dated 2007).

B1: hCAP18/LL-37: recombinant human full-length cathelicidin, residues 31-170 of SEQ ID NO:2, inactive precursor (protein, listed as Homo sapiens)
chain: QVLSYKEAVLRAIDGINQRSSDANLYRLLDLDPRPTMDGDPDTPKPVSFTVKETVCPRTTQQSPEDCDFKKDGLVKRCMGTVTLNQARGSFDISCDKDNKRFALLGDFFRKSKEKIGKEFKRIVQRIKDFLRNLVPRTES
B2: cathelin-like protein: recombinant human cathelin-like domain of hCAP18, residues 31-131 of SEQ ID NO:2, expressed in E. coli, His-tag cleaved by enterokinase (protein, listed as Homo sapiens)
chain: QVLSYKEAVLRAIDGINQRSSDANLYRLLDLDPRPTMDGDPDTPKPVSFTVKETVCPRTTQQSPEDCDFKKDGLVKRCMGTVTLNQARGSFDISCDKDNKR

Experiments:
human liver cathepsin L = target: T1, human liver cathepsin L (Homo sapiens, UniProt P07711); assay: Proteinase activity inhibition assay (hydrolysis of Z-Phe-Arg-AMC); format: biochemical
T1 construct: human liver cathepsin L (Calbiochem, Calif.); purchased Calbiochem; host or cells: human liver
T1 sequence (P07711 114-288 limits assumed): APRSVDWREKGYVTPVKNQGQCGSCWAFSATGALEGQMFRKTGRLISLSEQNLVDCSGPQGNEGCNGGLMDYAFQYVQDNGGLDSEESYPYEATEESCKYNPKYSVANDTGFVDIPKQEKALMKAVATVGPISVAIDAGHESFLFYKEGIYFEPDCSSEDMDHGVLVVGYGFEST
T1 sequence (P07711 292-333 limits assumed): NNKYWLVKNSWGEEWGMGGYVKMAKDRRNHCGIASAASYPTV
Description: FIG. 2 show the proteinase inhibitory activity of recombinant cathelin-like protein. Hydrolysis of the fluorogenic substrate Z-Phe-Arg-AMC by cathepsin L (protease alone), and in the presence of cathelin-like protein (protease+cathelin). […] Slopes, intercepts, and correlation coefficients were calculated by linear regression. Data were recorded 10 times over 30 min and are representative of two experiments.
Proteinase activity inhibition assay. Proteinase inhibitory activity of recombinant cathelin-like protein was assayed spectrofluorometrically by measuring its inhibitory action against human liver cathepsin L (Calbiochem, Calif.). For the reaction assay, cathepsin L (0.1 mU) in the assay buffer ([…] sodium acetate, 60 mM acetic acid, 8 mM dithiothreitol, and 4 mM EDTA, pH 5.5, supplemented with 0.1% BRIJ 35) was preincubated for 2 min at 30° C. with 10^−6 M cathelin-like protein before adding […] of substrate Z-Phe-Arg-7-amido-4-methylcoumarin (Calbiochem). When hydrolyzed by cathepsin L, this substrate releases highly fluorescent 7-amido-4-methylcoumarin (AMC). AMC intensity was determined using spectrophotometer at 370 nm excitation and an emission wavelength of 460 nm. One unit was defined as the amount of enzyme that will hydrolyze 1.0 mmol of Z-Phe-Arg-AMC per min at 25° C., pH 5.5.
Proteinase inhibitory activity. To evaluate the possible protease inhibitory activity action of cathelin-like protein, the activity of human cathepsin L was measured in the presence or absence of recombinant cathelin-like protein using the fluorescent substrate Z-Phe-Arg-AMC.

MRSA (ATCC 33591) = assay: Radial diffusion (inhibition zone) assay; format: cell-based, Staphylococcus aureus; settings: MRSA
Description: (§1) FIGS. 3A–C show Growth inhibition of MRSA, E. coli, and P. aeruginosa by cathelin-like protein. (a) Inhibition zone ssay on tryptone/agarose plates with MRSA. Clear circles show lack of bacterial growth. Lanes 1, 3, 5, bottom row: cathelin-like protein at […], 16 μM, respectively. Lane 2, top row:[…] of His-tagged cathelin-like protein before cleavage. Lane 4, top: enterokinase enzyme alone. All assays were performed in duplicate and repeated three times. (b), (c) CFU assay: growth inhibition of (b) MRSA and (c) E. coli, cultured in 10 mM phosphate and 1% TSB (pH 7.4) and then supplemented with different concentrations of human cathelin-like protein.
Antimicrobial assays. E. coli (ATCC 25922), Pseudomonas aeruginosa (ATCC 8427), Salmonella typhimurium (ATCC 13311), Proteus vulgaris (ATCC 8427), Staphylococcus epidermidis (ATCC 12228), and MRSA (ATCC 33591) isolates were maintained on trypticase soy broth (TSB) agar plates. Individual colonies were selected and cultured overnight in TSB, subcultured once at 1:50 in fresh TSB, and then grown to stationary phase for use in all experiments. The radial diffusion assay was performed in 0.5% agarose and 0.75% tryptone brought to ebullition and cooled to 43° C., and then mixed with […] of bacterial suspension and poured into a 10 cm Petri dish. […]

E. coli (ATCC 25922) = assay: Radial diffusion (inhibition zone) assay; format: cell-based
Description: (§2) Antimicrobial assays. E. coli (ATCC 25922), Pseudomonas aeruginosa (ATCC 8427), Salmonella typhimurium (ATCC 13311), Proteus vulgaris (ATCC 8427), Staphylococcus epidermidis (ATCC 12228), and MRSA (ATCC 33591) isolates were maintained on trypticase soy broth (TSB) agar plates. Individual colonies were selected and cultured overnight in TSB, subcultured once at 1:50 in fresh TSB, and then grown to stationary phase for use in all experiments. The radial diffusion assay was performed in 0.5% agarose and 0.75% tryptone brought to ebullition and cooled to 43° C., and then mixed with […] of bacterial suspension and poured into a 10 cm Petri dish. A series of small wells (diameter, 3 mm) were punched in the plate after the agarose solidified. Two microliters of test samples were applied in each well. Plates were incubated at 37° C. overnight to allow visible growth of bacteria. Antibacterial activity was indicated by the clear zone (no bacterial growth) around the well.
(§3) Antimicrobial activity of recombinant cathelin-like protein. Recombinant cathelicidins were tested for antimicrobial activity using a standard radial diffusion assay. Different concentrations of the cathelin-like protein were loaded into wells on assay plates containing Gram-positive MRSA, S. epidermidis, and strains of the Gram-negative bacterial species E. coli, S. enteritidis, P. vulgaris, and P. aeruginosa. […] Similarly, cathelin-like protein inhibited growth of S. epidermidis ([…]) but not S. enteritidis or P. vulgaris.

[1] = system: Proteus vulgaris (ATCC 8427); assay: Radial diffusion (inhibition zone) assay; format: cell-based; settings: P. vulgaris
Description: as §2, §3

[2] = system: Pseudomonas aeruginosa (ATCC 8427); assay: Radial diffusion (inhibition zone) assay; format: cell-based; settings: P. aeruginosa
Description: as §2, §3

S. enteritidis = assay: Radial diffusion (inhibition zone) assay; format: cell-based
Description: as §2, §3

[3] = system: Staphylococcus epidermidis (ATCC 12228); assay: Radial diffusion (inhibition zone) assay; format: cell-based; settings: S. epidermidis
Description: as §2, §3

E. coli = assay: Colony-forming assay (CFU), liquid phase; format: cell-based; design: unit of the concentration uncertain; settings: 10 mM phosphate, 1% TSB
Description: as §1
(§4) The colony-forming assay (CFU) was performed. Bacterial cultures (E. coli or MRSA) were collected at the logarithmic phase of growth in TSB, washed twice with phosphate-buffered saline, pH 7.4, and diluted to 104 CFU per ml in 10 mM phosphate buffer, pH 7.4, Na2HPO4/NaH2PO4-1% TSB (g per 1). Forty-five microliters of bacterial suspension were mixed with […] of H2O (control) or with […] of different concentrations of cathelin-like proteins, and the mixture was incubated at 37° C. Every 30 min, a […] aliquot of the reaction mixture was plated directly onto a TSB agar plate and then incubated at 37° C. overnight for enumeration of CFU. Data are reported as growth index=final CFU/CFU in initial inoculum. […]

MRSA = assay: Colony-forming assay (CFU), liquid phase; format: cell-based, Staphylococcus aureus; settings: 10 mM phosphate, 1% TSB, pH 7.4
Description: as §1, §4

Molecule | cathepsin L inhibitory activity (human liver cathepsin L; parallel experiments) | minimal inhibitory activity against growth, concentration (MRSA (ATCC 33591)) | minimal inhibitory activity against growth, concentration (E. coli (ATCC 25922)) | minimal inhibitory activity against growth, concentration [1] | minimal inhibitory activity against growth, concentration [2] | minimal inhibitory activity against growth, concentration (S. enteritidis) | minimal inhibitory activity against growth, concentration [3] | effect on growth (CFU) (E. coli; 32 (unit uncertain), pH 7.4) | effect on growth (CFU) (MRSA) | slope of fluorescence generation (linear regression) (human liver cathepsin L; cathepsin L + cathelin-like protein, cathepsin L alone slope 1.31) | hydrolytic activity of cathepsin L inhibited by (human liver cathepsin L; protein added at final concentration of 10^-6 M, substrate Z-Phe-Arg-AMC) [%] | growth inhibition [1] | growth inhibition [2] | growth inhibition (S. enteritidis) | effect on growth (CFU) (E. coli; 16 (unit uncertain), pH 7.4, compared to untreated controls) | effect on growth (CFU) (MRSA; concentration not given)
B1 | did not demonstrate inhibitory activity | greater than 64 mM | greater than 64 mM | greater than 64 mM | greater than 64 mM | greater than 64 mM | greater than 64 mM | did not show any activity | did not show any activity | – | – | – | – | – | – | –
B2 | – | 32 mM | 16 mM | – | – | – | 32 mM | – | – | 0.71 | 46 | not | did not inhibit growth | not | marked growth inhibition | decreased MRSA CFU for the first 15 min and then was bacteriostatic
